# Test results as given in patent US20190351049A1 (Regeneron, published 2019).
# Positions count from the first letter of the chain named.
# B1: H1M15290N (antibody, V domains shown)
# VH: QVQLVQSGAEVKKPGSSVKVSCKASGGTFSTYAISWVRQAPGQGLEWMGGIIPFFGTANYAQKFQGRVTITTDESTSTAYMELSSLRSEDTAVYYCAREGTYYDSLTGYYTHYYRMDVWGQGTTVTVSS
# VL: not shown
# B2: H2bM15292N (antibody, V domains shown)
# VH: QVQLVQSGAEVKKPGSSVKVSCKASGGTFNNYAISWVRQAPGQGLEWMGGIIPFFGTTNYAQKFQDRVTITSDDSTITAYMELSRLRSEDTAVYYCARDEPRRDGYNYYHYYYMDVWGQGTTVTVSS
# VL: DIQMTQSPSSLSASVGDRVTITCRASQSINSYLNWYQQKPGKAPNLLIYAASSLQSGVPSRFSGSGSGTDFTLTISSLHPEDFATYYCQQSYSTPPITFGQGTRLEIK
# B3: H2aM15281N (antibody, V domains shown)
# VH: QVQLVQSGAEVKKPGSSVKVSCKASKDTFSSYAISWVRQAPGQGLEWMGGIIPFFGTTTYEQKFQGRVTITTDESTRTAYMELSSLRSEDSAVYYCARDRPCISSAGTRYHYCVMDVWGQGTTVTVSS
# VL: not shown
# B4: H2aM15272N (antibody, V domains shown)
# VH: B3 VH with Q3R, K26G, G56V, E61A, K63N
# VL: not shown
# B5: H2aM15287N (antibody, V domains shown)
# VH: QLQLQESGPGLVKPSETLSLTCTVSGGSISSGNYYWGWIRQPPGKGLEWFGTIYYSGSTYYNPSLKSRVTISVDTSKNQFSLKLSSVTAADTAVYYCARRAAVGHFDYWGQGTLVTVSS
# VL: DIQMTQSPSTLSASVGDRVTITCRASQSISTWLAWYQQKPGKAPKLLIYEASSLESGVPSRFSGSGFGTEFTLTISRLQPDDFATYFCQQYNTYWTFGQGTKVEIK
# B6: H2aM15271N (antibody, V domains shown)
# VH: EVQLVESGGALVQPGGSLRLSCAASGFIFGSYEMNWVRQAPGKGLEWLSYISSSGSTIYYADSVKGRFTISRDNAKNSLYLQMNSLRAEDTAVYYCARERGQLGRGGYYYYGMDVWGQGTTVTVSS
# VL: EIVLTRSPGTLSLSPGERATLSCRASQSVSSSYLAWYHQKPGQAPRLLMYGTSIRATGIPDRFSGSGSGTDFTLTISRLEPEDFAVYYCQQYGSSPPWTFGQGTKVEIK
# B7: H1M15277N (antibody, V domains shown)
# V domain 1: EVQLLESGGGLVQPGGSLRLSCAASGFTFSSYAMSWVRQAPGKGLEWVSAISGRGGNTYYADSVKGRFTISRDNSKNTLFLQMNTLRAEDTAVYYCAKDRGFGFFDIWGRGTLATVSS
# V domain 2: not shown
# B8: H1M15267N (antibody, V domains shown)
# VH: QVQLQESGPGLVKPSETLSLTCTVSGGSISSYYWSWIRQPPGKGLEWIGYIYYSGSPNYNPSLKSRVTISVDTSKNQFSLKLTSVTAADTAVYYCARSLNWGPPFDYWGQGTLVTVSS
# VL: not shown
# B9: H2bM15291N (antibody, V domains shown)
# VH: QVQLVQSGAEVKKPGSSVKVSCKASGDTFSTYAVSWVRQAPGQGLEWMGGIIPFFGTSNYAQKFQGRVTITTDESTTTAYMELNSLRSEDTAVYYCAREITMVRGLTNYHFYGMDVWGQGTTVTVSS
# VL: not shown
# B10: H1M15289N (antibody, V domains shown)
# VH: QVQLQESGPGLVKPSETLSLTCTVSGGSISSYYWSWIRQPPGKGLEWIGYIYYSGSANYNPSLKSRVTISVDTSKNQFSLKLSSVTAADTAVYYCVRDRDLLLDHWGQGTLVTVSS
# VL: EIVMTQSPATLSVSPGKRATLSCRASQSVSSNLAWYQQKPGQAPRLLIYGASTRTTGFPARFSGSGSGTDFTLTISSLQSEDFAVYYCQQYNNWPYTFGQGTMLEIK
# B11: H1M15269N (antibody, V domains shown)
# VH: EVQLLESGGGLVQPGGSLRLSCPASGFTFSNYAMTWVRQAPGKGLEWVSAISGSGATTKYADSVKGRFTISRDNSRNTLYLQMNSLRAEDTAVYYCAKGGSGSYFPYYYYGLDVWGQGTTVTVSS
# VL: EIVMTQSPATLSVSPGDSATLSCRASQTVSSNLAWYQQKPGQAPRLLIYGASTRATGIPARFSGSGSGTEFTLTISSLQSEDFAVYYCQQYYNWWTFGQGTKVEIK
# B12: H2aM15278N (antibody, V domains shown)
# VH: QVQLVQSGAEVKKPGASVKVSCKASGYTFTSHGISWVRQAPGQGFEWMGWIGTYNSNTDYAQNFQGRVTMTTDTSTSTAYMELRNLRSDDTAVYYCARERGPYYGMDVWGQGTTVTVSS
# VL: EIVLAQSPGTLSLSPGERATLSCRASQSVNSNYLAWYQQKPGQAPRLLIYGASSRATGIPDRFSGSGSGTDFTLTISRLEPEDFAVYYCQQYGNSLTFGPGTKVDFK
# B13: H2aM15270N (antibody, V domains shown)
# VH: EVQLLESGGGLEQPGGSLRLSCAASGFTFSSYAMIWVRQAPGKGLEWVSTISGSGVNTYYADSVKGRFTISRDNSKNTLHLQMNSLRAEDTAVYHCAKEGLDCANGVCYNYYGMDVWGQGTTVTVSS
# VL: DIQMTQSPSSLSASVGDRVTITCRASQSINSFLNWYHQKPGKAPKFLIYSASNLQSGVPSRFSGSGSGTDFTLTISSLQPEDFSTYYCQQSYSIPLTFGGGTKVEIK
# B14: H1M15293N (antibody, V domains shown)
# VH: QVQLVQSGAEVKKPGSSVKVSCKVSGVTFSSYAISWVRQAPGQGLEWMGGIIPFFGTASYAQKFQGRVTVTTDESTSTAYMEVSSLRSEDTAVYYCARDNPELTKEGYYHYYAMDVWGQGTTVTVSS
# VL: not shown
# Key:
# [1] = biological target: T1, MERS-CoV spike protein (EMC/2012), wt (MERS-CoV (isolate EMC/2012), UniProt K9N5Q8 18-1353); experiment: cell-based or functional assay
# [2] = biological target: T1, MERS-CoV spike protein (EMC/2012), wt; experiment: cell-based or functional assay; remark: listed apart in the source
Binder,IC50 against MERSpp [1],IC50 against live virus (EMC2012) [1],"% Neutralization (.025 µg/ml), MERSpp infectivity [2]","Neutralization IC50 (M), MERSpp infectivity [2]"
B1,210 pM,2.55 nM,83%,5.84e-10 M
B2,113 pM,2.26 nM,91%,3.57e-10 M
B3,78.5 pM,0.292 nM,98%,4.64e-10 M
B4,72.3 pM,0.569 nM,97%,2.21e-10 M
B5,2930 pM,8.92 nM,5%,3.59e-09 M
B6,127 pM,1.03 nM,97%,2.74e-10 M
B7,64.6 pM,0.287 nM,99%,1.33e-10 M
B8,99.8 pM,0.891 nM,99%,1.49e-10 M
B9,186 pM,2.22 nM,90%,3.05e-10 M
B10,281 pM,3.15 nM,89%,4.25e-10 M
B11,688 pM,6.8 nM,40%,1.02e-09 M
B12,142 pM,0.644 nM,98%,2.11e-10 M
B13,102 pM,0.711 nM,98%,3.25e-10 M
B14,258 pM,2.58 nM,86%,4.36e-10 M
